One molecule from patent US6492117, “Zinc finger polypeptides capable of binding DNA quadruplexes” (Gendaq Limited) can be followed below.

The target in the data set is glutathione-S-transferase (UniProt P08515 P08515:1-218). Description: EMSA; GST alone control. As to conditions: tags: GST (pGEX-3X, Amersham-Pharmacia); label: 5'-32P; G4, antiparallel intramolecular. The procedure:
Binding reactions are performed in a final volume of 10 µl, using 10 fmol of labelled oligonucleotide and various amounts of purified Gq1* in binding buffer: 20 mM Tris-HCl pH 7.5, 1 mM EDTA, 1 mM DTT, 6% glycerol, 100 µg/ml BSA, 1 µg/ml calf thymus DNA, 50 µM ZnCl_2 and KCl to 150 mM. Binding reactions are carried out at room temperature for 1 hour. The samples are loaded on a 8% polyacrylamide (acrylamide:bisacrylamide=33:1) non-denaturing gel. The buffer in the gel and for electrophoresis is 0.5 X TB buffer (Sambrook, J., Fritsch, E. F., & Maniatis, T. (1989) in Molecular Cloning, A Laboratory Manual, Cold Spring Harbor Laboratory Press, Cold Spring Harbor.). Electrophoresis is performed at 15 V/cm, for 2 hours, at 4° C. […] The bands are quantified using Imagequant software. The fraction of DNA that is bound and free is determined after normalization by summing the total number of counts in each lane (Senear D F, Brenowitz M (1991) J Biol Chem Jul 25;266(21):13661–71). To minimise any error due to perturbation of the equilibrium under electrophoretic conditions, the fraction of free DNA is measured at various protein concentrations rather than measuring the amount of complex formed (Cann J R (1989) J Biol Chem Oct 15;264(29):17032–40; Garner M M, Revzin A (1981) Nucleic Acids Res Jul 10;9(13):3047–60). […]
On the technique in general: Mobility shift assays separate free from complexed probe on a gel.

glutathione-S-transferase, sequence (P08515 whole entry, one chain of several): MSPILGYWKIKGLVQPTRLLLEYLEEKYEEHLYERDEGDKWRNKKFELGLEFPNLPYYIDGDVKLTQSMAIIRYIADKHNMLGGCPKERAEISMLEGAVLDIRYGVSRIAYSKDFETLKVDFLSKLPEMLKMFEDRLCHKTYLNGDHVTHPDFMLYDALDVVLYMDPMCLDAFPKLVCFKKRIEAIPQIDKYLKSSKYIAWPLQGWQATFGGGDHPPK

With GGTTAGGGTTAGGGTTAGGGTTAGGGTTAG (structured_DNA) [Htelo], the binding result was “no binding”.
